Test results from patent US20180155451A1 (published 2018).

T1: FcγRIIb extracellular domain with C-terminal His tag (human, UniProt P31994 43-217)
T1 construct: extracellular domain; soluble receptor expressed in FreeStyle293 cells, used as analyte in Biacore; also called FcgRIIb; 2b; not shown: His tag attached to the C terminus
T1 sequence (looked up): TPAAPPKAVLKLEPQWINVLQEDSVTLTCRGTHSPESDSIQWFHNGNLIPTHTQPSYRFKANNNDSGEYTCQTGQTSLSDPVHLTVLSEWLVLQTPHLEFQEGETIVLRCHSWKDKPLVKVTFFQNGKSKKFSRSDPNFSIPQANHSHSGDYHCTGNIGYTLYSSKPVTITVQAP

T2: FcγRIIa H (human, UniProt P12318 34-217)
T2 construct: extracellular domain; also called FcγRIIa type H; 2aH
T2 sequence (looked up): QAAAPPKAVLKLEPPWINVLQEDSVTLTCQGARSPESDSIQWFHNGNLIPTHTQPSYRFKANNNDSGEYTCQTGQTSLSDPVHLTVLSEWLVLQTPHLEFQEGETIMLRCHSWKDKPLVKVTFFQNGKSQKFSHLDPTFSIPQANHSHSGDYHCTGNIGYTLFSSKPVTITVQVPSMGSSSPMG

T3: FcγRIIb (human, UniProt P31994 43-217)
T3 construct: extracellular domain; also called 2b
T3 sequence (looked up): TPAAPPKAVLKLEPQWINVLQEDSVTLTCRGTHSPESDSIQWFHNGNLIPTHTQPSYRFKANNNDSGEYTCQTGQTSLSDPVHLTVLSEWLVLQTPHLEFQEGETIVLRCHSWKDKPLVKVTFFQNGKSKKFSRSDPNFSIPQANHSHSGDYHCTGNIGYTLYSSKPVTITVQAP


What was measured:
[1] = biological target: T4, FcγRIa extracellular domain with C-terminal His tag (human, UniProt P12314 16-292); experiment: SPR (Biacore), antibody captured on antigen peptide chip, FcγR as analyte; relative binding
T4 construct: extracellular domain; soluble receptor expressed in FreeStyle293 cells, used as analyte in Biacore; also called FcgRI; 1a; not shown: His tag attached to the C terminus
T4 sequence (P12314 16-292): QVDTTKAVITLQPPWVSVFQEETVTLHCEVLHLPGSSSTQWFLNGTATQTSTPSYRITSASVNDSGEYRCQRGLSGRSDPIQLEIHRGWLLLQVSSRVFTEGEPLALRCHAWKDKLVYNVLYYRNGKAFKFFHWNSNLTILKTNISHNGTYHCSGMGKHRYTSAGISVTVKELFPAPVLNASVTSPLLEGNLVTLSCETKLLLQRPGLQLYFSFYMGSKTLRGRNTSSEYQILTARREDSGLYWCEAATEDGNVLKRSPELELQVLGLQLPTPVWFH

[2] = biological target: T1, FcγRIIb extracellular domain with …; experiment: as above
FcγRIIa H = biological target: T2, FcγRIIa H; experiment: SPR (Biacore), relative binding vs GpH7-A5/GpH7-B3/GpL16-k0
Protocol: (§1) The heterodimerized antibodies He Abs in which one of the H chains was introduced with an alteration were assayed for their binding activities to each activating FcγR and inhibitory FcγR according to the method described in Example 4. […] The activating FcγRs in FIGS. 26, 27, 28, and 29 are FcγRIa, FcγRIIa (R), FcγRIIa (H), and FcγRIIIa, respectively.
(§2) Analysis of interaction between objective antibody and the FcγR was carried out using Biacore T100 (GE Healthcare). HBS-EP+ (GE Healthcare) was used as the running buffer, and the measurement temperature was set to 25° C. Chips produced by immobilizing the antigen peptide by the amine coupling method to a Series S Sencor Chip CM5 (GE Healthcare), or alternatively, chips produced by allowing preliminarily biotinylated antigen peptides to interact with and immobilize onto a Series S Sensor Chip SA (certified) (GE Healthcare) were used. Antibodies of interest were captured onto an antigen peptide-immobilized chip, and allowed to interact to each FcγR diluted with running buffer. To regenerate and repeatedly use the chip, the antibodies captured on the chip were washed off by reacting 10 mM glycine-HCl, pH 1.5.

FcγRIIb = biological target: T3, FcγRIIb; experiment: as above
Protocol: as §1, §2

Binder	He/Con_1a [1]	He/Con_2b [2]	He/Con_2aH (FcγRIIa H)	He/Con_2b (FcγRIIb)
GpH7-A5/GpH7-B3 variant Q295_15Y/GpL16-k0 (antibody, human IgG1, kappa, heterodimerized anti-glypican-3 IgG1; alteration in the GpH7-B3 chain only; also called He Ab) heavy 1: not shown heavy 2: not shown light: DIVMTQSPLSLPVTPGEPASISCQASESLVHSNRNTYLHWYLQKPGQSPQLLIYKVSNRFSGVPDRFSGSGSGTDFTLKISRVEAEDVGVYYCSQNTHVPPTFGQGTKVEIERTVAAPSVFIFPPSDEQLKSGTASVVCLLNNFYPREAKVQWKVDNALQSGNSQESVTEQDSKDSTYSLSSTLTLSKADYEKHKVYACEVTHQGLSSPVTKSFNRGEC	102 % of control GpH7-A5/GpH7-B3/GpL16-k0 (=100)	65.4 % of control GpH7-A5/GpH7-B3/GpL16-k0 (=100)	–	–
GpH7-A5/GpH7-B3 variant S324_12R/GpL16-k0 (antibody, human IgG1, kappa, heterodimerized anti-glypican-3 IgG1; alteration in the GpH7-B3 chain only; also called He Ab) heavy 1: not shown heavy 2: not shown light: DIVMTQSPLSLPVTPGEPASISCQASESLVHSNRNTYLHWYLQKPGQSPQLLIYKVSNRFSGVPDRFSGSGSGTDFTLKISRVEAEDVGVYYCSQNTHVPPTFGQGTKVEIERTVAAPSVFIFPPSDEQLKSGTASVVCLLNNFYPREAKVQWKVDNALQSGNSQESVTEQDSKDSTYSLSSTLTLSKADYEKHKVYACEVTHQGLSSPVTKSFNRGEC	102 % of control GpH7-A5/GpH7-B3/GpL16-k0 (=100)	63.1 % of control GpH7-A5/GpH7-B3/GpL16-k0 (=100)	–	–
GpH7-A5/GpH7-B3 variant S324_15Y/GpL16-k0 (antibody, human IgG1, kappa, heterodimerized anti-glypican-3 IgG1; alteration in the GpH7-B3 chain only; also called He Ab) heavy 1: not shown heavy 2: not shown light: DIVMTQSPLSLPVTPGEPASISCQASESLVHSNRNTYLHWYLQKPGQSPQLLIYKVSNRFSGVPDRFSGSGSGTDFTLKISRVEAEDVGVYYCSQNTHVPPTFGQGTKVEIERTVAAPSVFIFPPSDEQLKSGTASVVCLLNNFYPREAKVQWKVDNALQSGNSQESVTEQDSKDSTYSLSSTLTLSKADYEKHKVYACEVTHQGLSSPVTKSFNRGEC	114 % of control GpH7-A5/GpH7-B3/GpL16-k0 (=100)	88.2 % of control GpH7-A5/GpH7-B3/GpL16-k0 (=100)	–	–
GpH7-A5/GpH7-B3 variant S324_10E/GpL16-k0 (antibody, human IgG1, kappa, heterodimerized anti-glypican-3 IgG1; alteration in the GpH7-B3 chain only; also called He Ab) heavy 1: not shown heavy 2: not shown light: DIVMTQSPLSLPVTPGEPASISCQASESLVHSNRNTYLHWYLQKPGQSPQLLIYKVSNRFSGVPDRFSGSGSGTDFTLKISRVEAEDVGVYYCSQNTHVPPTFGQGTKVEIERTVAAPSVFIFPPSDEQLKSGTASVVCLLNNFYPREAKVQWKVDNALQSGNSQESVTEQDSKDSTYSLSSTLTLSKADYEKHKVYACEVTHQGLSSPVTKSFNRGEC	105 % of control GpH7-A5/GpH7-B3/GpL16-k0 (=100)	77.4 % of control GpH7-A5/GpH7-B3/GpL16-k0 (=100)	–	–
GpH7-A5/GpH7-B3 variant S324_18N/GpL16-k0 (antibody, human IgG1, kappa, heterodimerized anti-glypican-3 IgG1; alteration in the GpH7-B3 chain only; also called He Ab) heavy 1: not shown heavy 2: not shown light: DIVMTQSPLSLPVTPGEPASISCQASESLVHSNRNTYLHWYLQKPGQSPQLLIYKVSNRFSGVPDRFSGSGSGTDFTLKISRVEAEDVGVYYCSQNTHVPPTFGQGTKVEIERTVAAPSVFIFPPSDEQLKSGTASVVCLLNNFYPREAKVQWKVDNALQSGNSQESVTEQDSKDSTYSLSSTLTLSKADYEKHKVYACEVTHQGLSSPVTKSFNRGEC	116 % of control GpH7-A5/GpH7-B3/GpL16-k0 (=100)	81.1 % of control GpH7-A5/GpH7-B3/GpL16-k0 (=100)	–	–
GpH7-A5/GpH7-B3 variant S324_20W/GpL16-k0 (antibody, human IgG1, kappa, heterodimerized anti-glypican-3 IgG1; alteration in the GpH7-B3 chain only; also called He Ab) heavy 1: not shown heavy 2: not shown light: DIVMTQSPLSLPVTPGEPASISCQASESLVHSNRNTYLHWYLQKPGQSPQLLIYKVSNRFSGVPDRFSGSGSGTDFTLKISRVEAEDVGVYYCSQNTHVPPTFGQGTKVEIERTVAAPSVFIFPPSDEQLKSGTASVVCLLNNFYPREAKVQWKVDNALQSGNSQESVTEQDSKDSTYSLSSTLTLSKADYEKHKVYACEVTHQGLSSPVTKSFNRGEC	114 % of control GpH7-A5/GpH7-B3/GpL16-k0 (=100)	87.5 % of control GpH7-A5/GpH7-B3/GpL16-k0 (=100)	–	–
GpH7-A5/GpH7-B3 variant A327_10E/GpL16-k0 (antibody, human IgG1, kappa, heterodimerized IgG1, mutation in one H chain only; also called He Ab) heavy 1: not shown heavy 2: not shown light: DIVMTQSPLSLPVTPGEPASISCQASESLVHSNRNTYLHWYLQKPGQSPQLLIYKVSNRFSGVPDRFSGSGSGTDFTLKISRVEAEDVGVYYCSQNTHVPPTFGQGTKVEIERTVAAPSVFIFPPSDEQLKSGTASVVCLLNNFYPREAKVQWKVDNALQSGNSQESVTEQDSKDSTYSLSSTLTLSKADYEKHKVYACEVTHQGLSSPVTKSFNRGEC	–	–	91.3 % of control He Ab (=100)	140 % of control He Ab (=100)
GpH7-A5/GpH7-B3 variant A327_01G/GpL16-k0 (antibody, human IgG1, kappa, heterodimerized IgG1, mutation in one H chain only; also called He Ab) heavy 1: not shown heavy 2: not shown light: DIVMTQSPLSLPVTPGEPASISCQASESLVHSNRNTYLHWYLQKPGQSPQLLIYKVSNRFSGVPDRFSGSGSGTDFTLKISRVEAEDVGVYYCSQNTHVPPTFGQGTKVEIERTVAAPSVFIFPPSDEQLKSGTASVVCLLNNFYPREAKVQWKVDNALQSGNSQESVTEQDSKDSTYSLSSTLTLSKADYEKHKVYACEVTHQGLSSPVTKSFNRGEC	–	–	97.2 % of control He Ab (=100)	116 % of control He Ab (=100)
